Data taken from patent US10428140B2, “Anti-EphA4 antibody” (EISAI R&D MANAGEMENT CO., LTD., priority 2015, dated 2019).

B1: antibody A: mouse anti-EphA4 monoclonal antibody, IgG1/κ; heavy chain variable region SEQ ID NO: 11, light chain variable region SEQ ID NO: 13 (antibody, listed as Mus musculus, V domains shown)
VH: QIQLVQSGPELKKPGETVKISCKASGYTFTDYSMHWVKQAPGKGLKWMGWINTETGEPTYADDFKGRFAFSLETSASTAYLQINNLKNEDTATYFCARIPLYYYGSRYWYFDVWGAGTTVTVSS
VL: DIQMTQSPASLSVSVGETVTITCRASENIYRNLAWYQQKQGKSPQLLVYAATNLADGVPSRFSGSGSGTQYSLKINSLQSEDFGSYYCQHFWGTPWTFGGGTKLEIK
B2: 69 (antibody, V domains shown)
VH: QIQLVQSGSELKKPGASVKVSCKASGYTFTDYSMHWVRQAPGQGLKWMGWINTETGEPTYADDFKGRFVFSLDTSVSTAYLQISSLKAEDTAVYYCARIPLYYYGSRYWYFDVWGQGTTVTVSS
VL: DIQMTQSPSSLSASVGDRVTITCRASENIYRNLAWYQQKPGKAPKLLVYAATNLADGVPSRFSGSGSGTDYTLTISSLQPEDFATYYCQHFWGTPWTFGQGTKVEIK
modifications: synthetic humanized antibody heavy chain variable region sequence; synthetic humanized antibody light chain variable region sequence
B3: 136 (antibody, V domains shown)
VH: QVQLVQSGSELKKPGASVKVSCKASGYTFTDYSMHWVRQAPGQGLKWMGWINTETGEPTYADDFKGRFVFSLDTSVSTAYLQISSLKAEDTAVYYCARIPLYYYGSRYWYFDVWGQGTTVTVSS
VL: EIVMTQSPATLSVSPGERATLSCRASENIYRNLAWYQQKPGQSPRLLIYAATNLADGIPARFSGSGSGTEYTLTISSLQSEDFAVYYCQHFWGTPWTFGQGTKVEIK
modifications: synthetic humanized antibody heavy chain variable region sequence; synthetic humanized antibody light chain variable region sequence
B4: 81 (antibody, V domains shown)
VL: DIQMTQSPSSLSASVGDRVTITCRASENIYRNLAWYQQKPGKAPKLLLYAATNLADGVPSRFSGSGSGTDYTLTISSLQSEDFATYYCQHFWGTPWTFGQGTKVEIK
VH: QVQLVQSGSELKKPGASVKVSCKASGYTFTDYSMHWVRQAPGQGLEWMGWINTETGEPTYAQGFTGRFVFSLDTSVSTAYLQISSLKAEDTAVYYCARIPLYYYGSRYWYFDVWGQGTTVTVSS
modifications: constant regions without entry; synthetic humanized antibody light chain variable region sequence; synthetic humanized antibody heavy chain variable region sequence
B5: 156 (antibody, V domains shown)
VH: QIQLVQSGSELKKPGASVKVSCKASGYTFTDYSMHWVRQAPGQGLKWMGWINTETGEPTYAQGFTGRFVFSLDTSVSTAYLQISSLKAEDTAVYYCARIPLYYYGSRYWYFDVWGQGTTVTVSS
VL: DIQMTQSPSSLSASVGDRVTITCRASENIYRNLAWYQQKPGKAPQLLLYAATNLADGVPSRFSGSGSGTDYTLTISSLQPEDFATYYCQHFWGTPWTFGQGTKVEIK
modifications: synthetic humanized antibody heavy chain variable region sequence; synthetic humanized antibody light chain variable region sequence
B6: 82 (antibody, V domains shown)
VL: DIQMTQSPSSLSASVGDRVTITCRASENIYRNLAWYQQKPGKAPKLLLYAATNLADGVPSRFSGSGSGTDYTLTISSLQSEDFATYYCQHFWGTPWTFGQGTKVEIK
VH: QVQLVQSGSELKKPGASVKVSCKASGYTFTDYSMHWVRQAPGQGLKWMGWINTETGEPTYAQGFTGRFVFSLDTSVSTAYLQISSLKAEDTAVYYCARIPLYYYGSRYWYFDVWGQGTTVTVSS
modifications: constant regions without entry; synthetic humanized antibody light chain variable region sequence; synthetic humanized antibody heavy chain variable region sequence
B7: 83 (antibody, V domains shown)
VL: DIQMTQSPSSLSASVGDRVTITCRASENIYRNLAWYQQKPGKAPKLLLYAATNLADGVPSRFSGSGSGTDYTLTISSLQSEDFATYYCQHFWGTPWTFGQGTKVEIK
VH: QIQLVQSGSELKKPGASVKVSCKASGYTFTDYSMHWVRQAPGQGLKWMGWINTETGEPTYAQGFTGRFVFSLDTSVSTAYLQISSLKAEDTAVYYCARIPLYYYGSRYWYFDVWGQGTTVTVSS
modifications: constant regions without entry; synthetic humanized antibody light chain variable region sequence; synthetic humanized antibody heavy chain variable region sequence

What was measured:
human EphA4 = biological target: T1, human EphA4 (Homo sapiens, UniProt P54764); experiment: Affinity of humanized antibodies by SPR (Biacore T200); type: binding; details: human EphA4 extracellular region-SEAP-His; for ka / kd: 1:1 binding model; for Kd: KD=kd/ka
T1 construct: made in house; not restated for the human SEAP-His protein
Protocol: The binding affinity of each anti-EphA4 monoclonal humanized antibody obtained in Example 16 for human EphA4 was determined by surface plasmon resonance (SPR) using Biacore T200 (GE Healthcare). First, for the assay of antibody A, a rat anti-mouse IgG1 antibody produced with a conventional method by immunizing rat with mouse IgG1 antibody was immobilized on sensor chip CM5. The immobilization of the rat anti-mouse IgG1 antibody on sensor chip CM5 was performed by the amine coupling method using N-hydroxysuccinimide (NHS) and N-ethyl-N′-(3-dimethylaminopropyl)carbodiimide hydrochloride (EDC). Ethanolamine was used in blocking (the sensor chip and the reagents for immobilization were all manufactured by GE Healthcare). The antibody was diluted with a buffer solution for immobilization (10 mM sodium acetate, pH 4.5) and immobilized on the sensor chip according to the protocol attached to Biacore T200. For the assay of each humanized monoclonal antibody, a protein A chip (GE Healthcare, 29-1383-03) was used. Antibody A or the humanized monoclonal antibody was diluted with a running buffer solution HBS-EP (GE Healthcare), injected onto only flow cell 2 for 120 seconds, and captured (captured amount: approximately 30 to 60 RU). Subsequently, human EphA4 extracellular region-SEAP-His protein serially diluted in the range of 50, 16.7, 5.6, 1.9, and 0.6 nM using HBS-EP was sequentially added from the lower toward higher concentration sides without regeneration operation. Binding reaction curves were sequentially observed at the time of the addition (association phase, for 120 sec) and after the completion of the addition (dissociation phase, for 900 sec). After the completion of each observation, the sensor chip was regenerated by the addition of 3 M MgCl2 (for 60 sec) or 10 mM Glycine-HCl pH 1.5 (for 30 sec). The obtained binding reaction curves were subjected to fitting analysis with 1:1 binding models using software BIA evaluation attached to the system to calculate the affinity (KD=kd/ka) for human EphA4 (Table 6).

[1] = biological target: T2, human EphA4 (binding to human Ephrin A5) (Homo sapiens, UniProt P54764); experiment: Human EphA4-human ligand binding inhibition ELISA of humanized antibodies (biotinylated Ephrin A5-Fc); details: biotinylated human Ephrin A5-Fc 0.7 nM
T2 construct: made in house; not restated for the human SEAP-His protein
Protocol: Each anti-EphA4 monoclonal humanized antibody obtained in Example 16 was evaluated for its inhibitory activity against the binding between human EphA4 and its human ligand according to the following steps. Each well of a 96-well plate (Nunc) was coated with an anti-alkaline phosphatase antibody (Thermo Fisher Scientific). After incubation overnight at 4° C., each well was blocked with 1% BlockAce (DS Pharma Biomedical) at room temperature for 1 hour. After washing with 0.05% Tween 20/PBS (Thermo Fisher Scientific) three times, the human EphA4 extracellular region-SEAP-His protein obtained by the method of Example 2 was added (final concentration: 10 nM) to each well and incubated at room temperature for 1 hour. After washing three times, a ligand and each serially diluted humanized antibody of antibody A (0, 0.003, 0.01, 0.03, 0.1, 0.3, 1, 3, 10, 30, 100, 300, 1000, and 3000 nM) were added to each well. The ligand used was biotinylated human Ephrin A5-Fc chimera (R&D Systems, final concentration: 0.7 nM). After incubation at room temperature for 1 hour and subsequent washing three times, horseradish peroxidase-labeled streptavidin (GE Healthcare) was added thereto and incubated at room temperature for 1 hour. After washing three times, a TMBZ (3,3′,5,5′-tetramethylbenzidine, Sigma-Aldrich) solution was added to each well and incubated at room temperature for 2 minutes. An equal amount of a reaction stopping solution (1N H2SO4, Wako Pure Chemical Industries) was added to each well. The absorbance at 450 nm was read using a microplate reader (PerkinElmer).

human EphA5 = biological target: T3, human EphA5 (Homo sapiens, UniProt P54756); experiment: Selectivity ELISA of humanized antibodies for human Eph receptor; type: binding; details: coated protein 1 nM
T3 construct: a protein of the extracellular region of each human Eph receptor fused with the SEAP protein and the His tag; made in house; host or cells: Expi293F cells (culture supernatant)
Excerpt: According to the method described in Example 7, a DNA sequence encoding the signal sequence and the extracellular region of each human Eph receptor (EphA1, EphA2, EphA3, EphA4, EphA5, EphA6, EphA7, EphA8, EphA10, EphB1, EphB2, EphB3, EphB4, and EphB6) was amplified by RT-PCR using tissue-derived total RNA and cloned into a pENTR1A vector (Invitrogen/Life Technologies) having a DNA sequence encoding SEAP protein and histidine tag. Next, the DNA sequence encoding the signal sequence and the extracellular region of each human Eph receptor, SEAP protein, and histidine tag was transferred to a pcDNA3.1_rfcB vector through LR reaction using Gateway System (Invitrogen/Life Technologies) to construct a vector for the expression of a protein of the extracellular region of each human Eph receptor fused with the SEAP protein and the His tag (referred to as “Eph receptor extracellular region-SEAP-His protein”) (this vector is referred to as “Eph receptor extracellular region-SEAP-His protein expression vector”).
Next, each human Eph receptor extracellular region-SEAP-His protein expression vector was transferred to Expi293F cells (Gibco/Thermo Fisher Scientific) using Expi293 expression system (Gibco/Thermo Fisher Scientific). After incubation (5% CO2, 37° C.) for 5 days, the culture supernatant was recovered and centrifuged at 1500 rpm at room temperature for 5 minutes. The centrifugation supernatant was filtered through a 0.45-μm filter (Merck Millipore).
Each anti-EphA4 monoclonal humanized antibody obtained in Example 16 was evaluated for its binding activity against each human Eph receptor according to the following steps.
Each well of a 96-well plate (Nunc) was coated with a rabbit anti-6-His antibody (Bethyl Laboratories). Each well was […] After washing with 0.05% Tween 20/PBS (Nacalai Tesque) three times, the SEAP-His protein of human EphA1, EphA2, EphA3, EphA4, EphA5, EphA6, EphA7, EphA8, EphA10, EphB1, EphB2, EphB3, EphB4, or EphB6 was added (final concentration: 1 nM) to each well and incubated at room temperature for 1 hour. After washing three times, the humanized antibody was added to each well and incubated at room temperature for 1 hour. After washing three times, a horseradish peroxidase-labeled donkey […] IgG antibody (Jackson ImmunoResearch Laboratories) was added thereto and incubated at room temperature for 1 hour. After washing three times, TMB Microwell Peroxidase Substrate System (Kirkegaard & Perry Laboratories (KPL)) was added to each well. After confirmation of moderate color development, an equal amount of a reaction stopping solution (1N H2SO4, Wako Pure Chemical Industries) was added to each well. The absorbance at 450 nm was read using a microplate reader (Thermo Fisher Scientific).

T1 sequence (P54764 20-547): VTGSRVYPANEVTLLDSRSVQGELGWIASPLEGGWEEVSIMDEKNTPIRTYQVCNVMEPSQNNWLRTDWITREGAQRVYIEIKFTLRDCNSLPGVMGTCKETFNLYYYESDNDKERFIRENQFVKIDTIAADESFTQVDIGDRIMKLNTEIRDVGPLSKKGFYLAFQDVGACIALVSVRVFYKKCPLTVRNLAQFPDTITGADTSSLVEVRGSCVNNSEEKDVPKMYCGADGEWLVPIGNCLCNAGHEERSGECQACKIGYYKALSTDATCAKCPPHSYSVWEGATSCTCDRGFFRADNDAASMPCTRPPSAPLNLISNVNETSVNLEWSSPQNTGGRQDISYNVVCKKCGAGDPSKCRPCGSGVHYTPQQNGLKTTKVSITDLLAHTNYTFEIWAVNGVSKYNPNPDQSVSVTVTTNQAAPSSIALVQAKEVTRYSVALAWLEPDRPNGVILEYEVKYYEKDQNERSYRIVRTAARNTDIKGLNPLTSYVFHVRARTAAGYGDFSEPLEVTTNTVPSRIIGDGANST
T2 sequence (P54764 20-547): as above
T3 sequence (P54756 25-573 limits assumed): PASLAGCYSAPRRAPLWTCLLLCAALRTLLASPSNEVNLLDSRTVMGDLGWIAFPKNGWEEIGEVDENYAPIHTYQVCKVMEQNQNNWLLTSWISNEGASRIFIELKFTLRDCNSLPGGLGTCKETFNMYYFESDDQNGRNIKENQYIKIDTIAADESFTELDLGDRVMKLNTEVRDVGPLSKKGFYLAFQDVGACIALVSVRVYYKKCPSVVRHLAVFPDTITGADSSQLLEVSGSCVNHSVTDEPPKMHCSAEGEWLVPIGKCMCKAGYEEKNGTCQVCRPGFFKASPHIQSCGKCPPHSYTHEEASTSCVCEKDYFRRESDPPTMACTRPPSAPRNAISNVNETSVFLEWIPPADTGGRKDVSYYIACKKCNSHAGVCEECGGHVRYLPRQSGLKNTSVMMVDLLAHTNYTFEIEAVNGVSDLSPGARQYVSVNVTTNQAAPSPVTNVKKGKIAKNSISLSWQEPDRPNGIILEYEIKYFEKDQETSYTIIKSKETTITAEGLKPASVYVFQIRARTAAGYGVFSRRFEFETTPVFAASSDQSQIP

| Molecule | ka (human EphA4) [M⁻¹ s⁻¹] | kd (human EphA4) [s⁻¹] | IC50 [1] [nM] | Kd (human EphA4) [nM] | hEphA5-SEAP-: absorbance at 450 nm, percentage with respect to hEphA4-SEAP-His as 100% (human EphA5) [%] |
| --- | --- | --- | --- | --- | --- |
| B1 | 420000 | 0.00025 |  |  |  |
| B2 | 340000 | 0.00037 | 3.1 | 1.1 | 5.6 |
| B3 |  |  | 2.5 |  | 5.2 |
| B4 | 340000 | 0.00054 | 4 | 1.6 | 4.9 |
| B5 |  |  | 2.5 |  | 5.7 |
| B6 | 290000 | 0.00046 | 4.1 | 1.6 | 6.5 |
| B7 | 290000 | 0.00054 | 3.7 | 1.9 | 5.8 |
